This assay concerns the target Su(Hw) (Drosophila (endogenous in embryo nuclear extract)) (UniProt P08970). Kind of assay: co-IP.

Drawing on article PMC3675495, this text covers percent co-precipitated for 1 substance.

Sequence of UniProt P08970 (P08970 whole entry): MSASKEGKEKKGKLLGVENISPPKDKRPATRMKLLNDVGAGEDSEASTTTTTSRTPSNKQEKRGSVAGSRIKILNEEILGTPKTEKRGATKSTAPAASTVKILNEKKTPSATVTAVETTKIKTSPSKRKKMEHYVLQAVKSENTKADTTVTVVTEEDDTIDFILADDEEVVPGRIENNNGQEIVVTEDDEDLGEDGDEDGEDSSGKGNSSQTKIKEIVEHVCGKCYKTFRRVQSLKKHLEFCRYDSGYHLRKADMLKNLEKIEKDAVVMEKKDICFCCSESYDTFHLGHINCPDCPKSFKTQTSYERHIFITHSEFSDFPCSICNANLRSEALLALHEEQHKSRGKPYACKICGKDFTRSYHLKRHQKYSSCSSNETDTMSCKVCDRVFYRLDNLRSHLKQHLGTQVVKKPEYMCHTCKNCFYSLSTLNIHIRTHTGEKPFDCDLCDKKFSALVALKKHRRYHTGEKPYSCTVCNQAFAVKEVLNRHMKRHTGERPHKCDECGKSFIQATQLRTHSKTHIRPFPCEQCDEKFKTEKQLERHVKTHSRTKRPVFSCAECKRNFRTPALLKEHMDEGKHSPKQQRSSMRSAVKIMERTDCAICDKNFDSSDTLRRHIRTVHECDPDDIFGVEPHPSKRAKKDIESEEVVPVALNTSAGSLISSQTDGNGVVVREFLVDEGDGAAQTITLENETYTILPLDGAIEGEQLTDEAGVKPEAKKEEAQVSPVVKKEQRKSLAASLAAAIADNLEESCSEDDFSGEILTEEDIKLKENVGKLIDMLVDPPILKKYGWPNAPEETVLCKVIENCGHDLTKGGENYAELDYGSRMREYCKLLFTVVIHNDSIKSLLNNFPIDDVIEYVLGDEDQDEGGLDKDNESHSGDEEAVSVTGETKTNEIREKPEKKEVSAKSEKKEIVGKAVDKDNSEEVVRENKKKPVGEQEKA

Consider OSA, Q8IN94 1-2716, for which the percent co-precipitated stood at 0.5%.
